From US20090280128A1 (SBI BIOTECH, published 2009)
Substitutions are numbered along the chain they refer to.

B1: anti-ILT7 antibody #17 (mouse anti-human ILT7 monoclonal antibody produced by hybridoma #17, FERM BP-10705) (antibody, V domains shown)
VH: QVQLKQSGAELVRPGASVKLSCKTSGYIFTSYWIHWVKQRSGQGLEWIARIYPGTGSTYYNEKFKGKATLTADKSSSTAYMQLSSLKSEDSAVYFCARYPTYDWYFDVWGAGTTVTVSS
VL: DIVLTQSPATLSVTPGDRVSLSCRASQSISNYLHWYQQKSHESPRLLIKYASQSISGIPSRFSGSGSGTDFTLSINSVETEDFGMYFCQQSNSWPLTFGAGTKLELK
notes: Mouse hybridoma antibody as tested; also called ILT7#17
B2: anti-ILT7 antibody #11 (mouse anti-human ILT7 monoclonal antibody produced by hybridoma #11, FERM BP-10704) (antibody, V domains shown)
VH: DVQLQESGPGLVKPSQSLSLTCTVTGYSITSDYAWNWIRQFPGNKLEWMGYISYSGSTSYNPSLKSRISITRDTSKNQFFLQLNSVTTEDTATYYCARSPPYYAMDYWGQGTSVTVSS
VL: DIVMTQSHKFMSTSVGDRVSITCKASQDVGTAVAWYQQKPGQSPKLLIYWASTRHTGVPDRFTGSGSGTDFTLTISNVQSEDLADYFCQQYSSYPLTFGAGTKLELK
notes: Mouse hybridoma antibody as tested; also called ILT7#11; anti-ILT7 antibody 411
B3: mouse anti-human ILT7 antibody #37 (monoclonal antibody produced by hybridoma #37) (antibody, V domains shown)
VH: B2 VH with S99A, P100L, Y102L, Y103P, A104W, M105F, D106A, S113L, S118A
VL: B2 VL with L96Y, A100G, L106I
notes: Mouse hybridoma antibody; also called ILT7#37; ILT7437

Assays:
[1] = target: T1, C-FLAG ILT7 (human ILT7 with FLAG tag at the C terminus, co-expressed with Myc-FcRγ) (human, UniProt P59901 17-499); assay: cell-based or functional assay
[2] = target: ILT3 (on 293T cells, from pcDNA4.1-ILT3) (Homo sapiens (Human), UniProt Q8NHJ6 22-448); assay: flow cytometry on 293T cells co-transfected with C-FLAG ILT1, ILT2, ILT3 and Myc-FcRγ
[3] = target: T2, C-FLAG ILT1 (human ILT1 with a FLAG tag at the C terminus, on 293T cells) (human, UniProt Q8N149 24-483); assay: as above
T2 construct: Cloned from a human tonsil cDNA library; also called pME18X-C-FLAGILT1; pME18X-C-FLAG ILT1

[4] = target: ILT2 (on 293T cells, from pcDNA4.1-ILT2) (Homo sapiens (Human), UniProt Q8NHL6 24-650); assay: as above
[5] = target: T3, human ILT7 expressed on human IPCs (interferon producing cells, BDCA-2 positive cells of peripheral blood … (human, UniProt P59901 17-499)); assay: flow cytometry, multiple staining of human peripheral blood lymphocytes (Lineage-1, CD123, BDCA-2)
T3 construct: Natural protein on primary human cells; GenBank NM-012276 is printed for the cDNA; also called immunoglobulin-like transcript-7; ILT7 molecules expressed on human IPCs

[6] = target: T3, human ILT7 expressed on human IPCs …; assay: flow cytometry on human lymphocytes, with anti-CD123 antibody
[7] = target: T4, N-FLAG ILT7 (human ILT7 with FLAG tag attached to the N terminus, co-expressed with Myc-FcRγ on 293T cells) (human, UniProt P59901 17-499); assay: flow cytometry on 293T cells co-expressing N-FLAG ILT7 and Myc-FcRγ
T4 construct: also called pME18X-N-FLAG ILT7; ILT7 molecules with a FLAG tag

[8] = target: T1, C-FLAG ILT7 (human ILT7 with FLAG tag …); assay: flow cytometry of hybridoma supernatant on 293T cells transfected with C-FLAG ILT7 and Myc-FcRγ
[9] = target: T3, human ILT7 expressed on human IPCs …; assay: flow cytometry as in B of Example 2 (human peripheral blood lymphocytes, BDCA-2 positive cells)

T1 sequence (P59901 other isoform, or with tags, fused parts or gaps): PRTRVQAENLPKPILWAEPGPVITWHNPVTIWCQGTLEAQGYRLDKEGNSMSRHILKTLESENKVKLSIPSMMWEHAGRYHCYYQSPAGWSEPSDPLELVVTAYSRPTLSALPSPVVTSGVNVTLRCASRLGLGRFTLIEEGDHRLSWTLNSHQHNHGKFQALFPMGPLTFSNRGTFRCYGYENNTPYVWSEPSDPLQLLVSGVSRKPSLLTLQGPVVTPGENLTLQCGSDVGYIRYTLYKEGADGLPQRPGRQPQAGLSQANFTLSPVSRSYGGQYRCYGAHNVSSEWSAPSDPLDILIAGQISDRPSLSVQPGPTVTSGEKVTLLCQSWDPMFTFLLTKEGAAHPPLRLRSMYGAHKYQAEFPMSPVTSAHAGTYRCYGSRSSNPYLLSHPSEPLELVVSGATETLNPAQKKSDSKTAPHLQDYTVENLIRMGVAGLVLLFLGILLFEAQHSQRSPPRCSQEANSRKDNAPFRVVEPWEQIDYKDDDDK
T3 sequence (P59901 other isoform, or with tags, fused parts or gaps): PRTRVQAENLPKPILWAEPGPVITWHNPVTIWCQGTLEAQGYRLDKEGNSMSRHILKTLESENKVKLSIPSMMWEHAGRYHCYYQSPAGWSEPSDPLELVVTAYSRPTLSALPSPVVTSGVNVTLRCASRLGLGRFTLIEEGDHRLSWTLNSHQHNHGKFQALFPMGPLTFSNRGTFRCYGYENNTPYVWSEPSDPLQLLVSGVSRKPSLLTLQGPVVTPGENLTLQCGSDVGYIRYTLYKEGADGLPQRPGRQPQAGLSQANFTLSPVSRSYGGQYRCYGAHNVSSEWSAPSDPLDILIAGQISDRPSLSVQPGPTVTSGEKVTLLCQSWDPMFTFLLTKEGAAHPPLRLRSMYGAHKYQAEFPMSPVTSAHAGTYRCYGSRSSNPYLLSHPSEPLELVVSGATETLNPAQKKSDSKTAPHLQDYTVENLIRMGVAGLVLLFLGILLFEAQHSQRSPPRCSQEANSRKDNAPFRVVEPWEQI
Sequence of ILT2 (on 293T cells, from pcDNA4.1-ILT2) (Q8NHL6 other isoform, or with tags, fused parts or gaps limits assumed): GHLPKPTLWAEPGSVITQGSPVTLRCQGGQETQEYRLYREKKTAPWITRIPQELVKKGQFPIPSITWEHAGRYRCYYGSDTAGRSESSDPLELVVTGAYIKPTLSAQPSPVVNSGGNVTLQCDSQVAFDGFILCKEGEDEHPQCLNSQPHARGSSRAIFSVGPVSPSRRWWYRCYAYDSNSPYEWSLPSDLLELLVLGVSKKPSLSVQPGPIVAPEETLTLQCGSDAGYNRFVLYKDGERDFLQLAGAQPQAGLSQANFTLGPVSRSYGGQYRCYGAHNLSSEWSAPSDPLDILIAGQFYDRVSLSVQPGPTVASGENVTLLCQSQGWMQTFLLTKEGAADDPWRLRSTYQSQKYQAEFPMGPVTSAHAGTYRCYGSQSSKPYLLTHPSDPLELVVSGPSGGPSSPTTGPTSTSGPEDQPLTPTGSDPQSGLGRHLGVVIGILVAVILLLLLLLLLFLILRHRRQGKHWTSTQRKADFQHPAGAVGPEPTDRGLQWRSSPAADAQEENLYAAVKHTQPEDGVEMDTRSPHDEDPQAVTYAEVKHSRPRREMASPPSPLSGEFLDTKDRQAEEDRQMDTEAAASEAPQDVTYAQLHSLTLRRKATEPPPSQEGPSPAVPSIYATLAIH
Sequence of ILT3 (on 293T cells, from pcDNA4.1-ILT3) (Q8NHJ6 22-448 D223G/Q414R limits assumed): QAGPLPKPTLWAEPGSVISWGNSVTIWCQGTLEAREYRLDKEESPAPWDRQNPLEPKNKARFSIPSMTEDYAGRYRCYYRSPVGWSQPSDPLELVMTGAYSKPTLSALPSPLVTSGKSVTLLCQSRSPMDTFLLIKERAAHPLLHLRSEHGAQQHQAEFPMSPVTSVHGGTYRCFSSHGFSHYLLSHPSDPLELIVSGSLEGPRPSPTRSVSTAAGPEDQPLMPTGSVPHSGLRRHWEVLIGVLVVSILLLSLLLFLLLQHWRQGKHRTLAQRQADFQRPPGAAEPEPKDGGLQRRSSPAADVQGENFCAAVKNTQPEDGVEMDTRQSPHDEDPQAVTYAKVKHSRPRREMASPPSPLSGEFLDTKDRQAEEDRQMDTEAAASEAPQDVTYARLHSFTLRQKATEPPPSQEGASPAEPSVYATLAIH
T2 sequence (Q8N149 other isoform, or with tags, fused parts or gaps limits assumed): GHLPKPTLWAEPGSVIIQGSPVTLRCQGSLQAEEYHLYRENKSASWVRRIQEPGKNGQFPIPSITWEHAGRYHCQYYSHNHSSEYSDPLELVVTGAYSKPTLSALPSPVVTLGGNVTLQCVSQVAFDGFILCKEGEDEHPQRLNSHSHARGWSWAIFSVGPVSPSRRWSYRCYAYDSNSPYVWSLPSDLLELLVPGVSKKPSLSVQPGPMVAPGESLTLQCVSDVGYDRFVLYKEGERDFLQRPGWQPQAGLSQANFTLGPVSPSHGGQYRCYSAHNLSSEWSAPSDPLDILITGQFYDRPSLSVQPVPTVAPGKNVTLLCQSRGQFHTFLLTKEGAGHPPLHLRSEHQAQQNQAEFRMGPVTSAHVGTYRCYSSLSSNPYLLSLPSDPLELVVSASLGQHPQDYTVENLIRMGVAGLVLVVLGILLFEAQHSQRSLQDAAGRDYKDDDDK
T4 sequence (P59901 other isoform, or with tags, fused parts or gaps): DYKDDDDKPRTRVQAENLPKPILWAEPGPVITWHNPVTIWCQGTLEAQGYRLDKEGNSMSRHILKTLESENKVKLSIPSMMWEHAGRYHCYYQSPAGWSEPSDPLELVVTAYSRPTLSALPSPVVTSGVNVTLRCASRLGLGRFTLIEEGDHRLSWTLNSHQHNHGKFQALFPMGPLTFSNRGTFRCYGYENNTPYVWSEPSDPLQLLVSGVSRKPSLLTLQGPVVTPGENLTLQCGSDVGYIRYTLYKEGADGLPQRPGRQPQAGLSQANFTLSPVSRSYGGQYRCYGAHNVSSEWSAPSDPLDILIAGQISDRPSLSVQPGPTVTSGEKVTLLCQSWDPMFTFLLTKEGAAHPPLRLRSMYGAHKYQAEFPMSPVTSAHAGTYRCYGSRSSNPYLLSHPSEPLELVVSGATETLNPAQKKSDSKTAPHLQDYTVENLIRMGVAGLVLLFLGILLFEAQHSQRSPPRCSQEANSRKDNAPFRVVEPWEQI

Row | Binder | APC fluorescence intensity ratio (%), 37 °C against 4 °C (internalization on ILT7-CHO cells) [1] | FITC fluorescence intensity ratio (%), 37 °C against 4 °C (internalization on ILT7-CHO cells) [1] | binding result [2] | binding result [3] | binding result [4] | binding result [5] | binding result [6] | binding result [7] | binding result [8] | binding result [9]
1 | B1 | 95.4% | 44.5% | no binding | no binding | no binding | binds | – | – | – | –
2 | B2 | – | – | no binding | no binding | no binding | – | binds | binds | binds | –
3 | B3 | 98.2% | 55.9% | – | – | – | – | – | – | – | binds
